The target of one assay is MT145K gp120 monomer. In words: ELISA. On the set-up: unit not given beside the values. (In general: ELISA stands for enzyme-linked immunosorbent assay.)
In assay [1] the target is MT145K SOSIP.664 trimer (MT145 Q171K). In words: ELISA. On the set-up: unit not given beside the values.
Assay [2] has as its target CRF250 SOSIP trimer (HIV-1 (subtype AG)). In words: method not stated.

By Kd is commonly meant the concentration at which binding is half-saturated.

Turning to PG9, the EC50 with MT145K gp120 monomer was 0.792 ?.

In the case of CH01, the EC50 in assay [1] is listed as 0.187 ?; in the assay with MT145K gp120 monomer it was 10 ?.

As to CH01 UCA BCR (antibody), in assay [2], the Kd was 100 nM.

The values are drawn from patent US20210324003A1.
